Results: paper PMC12421377, “Molecular basis for the recognition of low-frequency polyadenylation signals by mPSF”

The binders below were run against T1, mPSF (CPSF160-WDR33-CPSF30-Fip1) (human, UniProt Q10570;Q9C0J8;O95639-2;Q6UN15 1-1443;1-572;1-244;1-594) (assay: competition fluorescence anisotropy; vs 3 nM FAM-AAUAAA, 30 nM mPSF; 20 mM Tris pH 8.0, 150 mM NaCl, 10 mM DTT, 100 nM BSA, 0.01% NP-40; 45 min on ice, read at room temperature; triplicates). Conditions: protein: recombinant; copies: 1;1;1;1.
T1 sequence (Q10570 whole entry, chain 1 of 4): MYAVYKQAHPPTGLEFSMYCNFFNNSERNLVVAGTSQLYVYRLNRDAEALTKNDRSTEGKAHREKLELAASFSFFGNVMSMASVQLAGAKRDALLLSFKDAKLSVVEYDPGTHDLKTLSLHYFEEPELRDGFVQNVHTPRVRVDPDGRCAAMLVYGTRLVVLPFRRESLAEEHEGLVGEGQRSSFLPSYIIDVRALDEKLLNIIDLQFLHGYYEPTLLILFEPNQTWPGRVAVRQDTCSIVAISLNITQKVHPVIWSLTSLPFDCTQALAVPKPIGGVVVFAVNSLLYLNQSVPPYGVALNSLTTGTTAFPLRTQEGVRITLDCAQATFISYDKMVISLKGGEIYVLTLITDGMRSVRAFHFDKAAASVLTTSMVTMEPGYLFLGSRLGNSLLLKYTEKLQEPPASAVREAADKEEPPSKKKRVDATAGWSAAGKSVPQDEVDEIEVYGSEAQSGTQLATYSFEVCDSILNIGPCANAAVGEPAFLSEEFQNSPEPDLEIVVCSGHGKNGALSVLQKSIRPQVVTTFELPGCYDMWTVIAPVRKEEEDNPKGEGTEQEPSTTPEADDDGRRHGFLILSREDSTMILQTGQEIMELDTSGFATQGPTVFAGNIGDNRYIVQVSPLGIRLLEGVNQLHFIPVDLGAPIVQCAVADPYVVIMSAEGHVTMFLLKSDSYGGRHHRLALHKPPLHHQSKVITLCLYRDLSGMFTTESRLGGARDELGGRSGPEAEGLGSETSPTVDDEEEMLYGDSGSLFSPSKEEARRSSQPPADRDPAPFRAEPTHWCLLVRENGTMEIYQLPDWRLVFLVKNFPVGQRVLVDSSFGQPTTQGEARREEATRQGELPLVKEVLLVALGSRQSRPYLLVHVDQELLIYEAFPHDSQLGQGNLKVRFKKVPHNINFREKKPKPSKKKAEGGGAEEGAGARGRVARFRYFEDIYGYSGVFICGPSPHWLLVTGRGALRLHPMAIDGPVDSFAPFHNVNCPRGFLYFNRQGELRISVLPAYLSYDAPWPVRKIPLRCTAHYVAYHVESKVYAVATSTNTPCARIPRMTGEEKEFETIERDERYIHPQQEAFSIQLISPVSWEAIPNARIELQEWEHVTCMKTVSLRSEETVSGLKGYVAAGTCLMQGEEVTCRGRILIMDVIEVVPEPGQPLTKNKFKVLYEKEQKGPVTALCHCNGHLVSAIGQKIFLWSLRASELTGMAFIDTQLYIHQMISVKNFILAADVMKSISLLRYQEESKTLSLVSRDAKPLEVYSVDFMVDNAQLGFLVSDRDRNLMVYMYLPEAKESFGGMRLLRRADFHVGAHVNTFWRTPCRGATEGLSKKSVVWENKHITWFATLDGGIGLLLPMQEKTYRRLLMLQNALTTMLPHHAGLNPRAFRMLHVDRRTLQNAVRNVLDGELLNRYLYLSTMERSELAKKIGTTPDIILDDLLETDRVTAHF
T1 sequence (Q9C0J8 1-572, chain 2 of 4): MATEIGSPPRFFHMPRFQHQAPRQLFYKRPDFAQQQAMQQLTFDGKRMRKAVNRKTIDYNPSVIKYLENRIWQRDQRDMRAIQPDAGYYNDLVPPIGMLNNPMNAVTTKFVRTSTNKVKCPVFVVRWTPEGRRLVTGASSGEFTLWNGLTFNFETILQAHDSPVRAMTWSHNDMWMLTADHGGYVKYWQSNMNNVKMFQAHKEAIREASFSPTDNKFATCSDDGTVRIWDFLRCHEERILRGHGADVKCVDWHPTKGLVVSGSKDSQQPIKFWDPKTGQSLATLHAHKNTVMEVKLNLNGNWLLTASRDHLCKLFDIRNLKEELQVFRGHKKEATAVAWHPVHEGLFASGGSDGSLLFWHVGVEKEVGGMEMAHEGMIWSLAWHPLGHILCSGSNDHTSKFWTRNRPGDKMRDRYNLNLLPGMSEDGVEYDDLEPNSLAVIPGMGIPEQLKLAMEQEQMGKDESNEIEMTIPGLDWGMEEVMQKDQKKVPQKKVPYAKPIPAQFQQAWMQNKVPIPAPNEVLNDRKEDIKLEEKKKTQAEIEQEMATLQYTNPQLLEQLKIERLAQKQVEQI
T1 sequence (O95639 other isoform, or with tags, fused parts or gaps, chain 3 of 4): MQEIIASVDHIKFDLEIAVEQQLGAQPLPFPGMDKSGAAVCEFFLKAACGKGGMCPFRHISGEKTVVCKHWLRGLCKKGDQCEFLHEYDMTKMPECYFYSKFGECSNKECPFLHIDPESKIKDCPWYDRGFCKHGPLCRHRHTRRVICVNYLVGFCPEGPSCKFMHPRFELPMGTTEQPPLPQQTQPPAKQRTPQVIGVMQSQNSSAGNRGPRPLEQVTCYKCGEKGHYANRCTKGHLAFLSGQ
T1 sequence (Q6UN15 whole entry, chain 4 of 4): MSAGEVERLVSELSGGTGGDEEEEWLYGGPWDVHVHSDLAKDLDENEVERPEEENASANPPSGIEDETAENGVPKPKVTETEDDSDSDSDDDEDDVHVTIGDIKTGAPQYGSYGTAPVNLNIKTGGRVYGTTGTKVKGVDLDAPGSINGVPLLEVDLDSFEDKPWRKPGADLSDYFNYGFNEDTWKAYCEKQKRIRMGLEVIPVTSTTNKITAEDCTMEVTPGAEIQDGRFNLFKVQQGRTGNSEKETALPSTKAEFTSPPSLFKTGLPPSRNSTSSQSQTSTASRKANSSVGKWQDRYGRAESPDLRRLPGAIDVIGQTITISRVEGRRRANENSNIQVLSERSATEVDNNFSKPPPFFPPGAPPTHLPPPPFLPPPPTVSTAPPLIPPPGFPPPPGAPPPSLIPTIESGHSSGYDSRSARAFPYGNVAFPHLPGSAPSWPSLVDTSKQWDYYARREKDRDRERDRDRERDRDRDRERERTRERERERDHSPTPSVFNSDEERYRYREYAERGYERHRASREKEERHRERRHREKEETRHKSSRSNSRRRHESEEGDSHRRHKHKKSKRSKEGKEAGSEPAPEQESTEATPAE

Binder	Kd [nM]
UGCAAUAAACAA (ssRNA) [AAUAAA 12-mer]	40

The binders below were run against T1, mPSF (CPSF160-WDR33-CPSF30-Fip1) (assay: cryo-EM structure (2.5 A); RNA up to 40 uM, mPSF 1.4 uM; 20 mM Tris pH 8.0, 150 mM NaCl, 10 mM DTT, 100 nM BSA, 0.01% NP-40; 45 min on ice, read at room temperature; triplicates). Conditions: protein: recombinant; copies: 1;1;1;1.

Binder	binding result
UGCAGUAAACAA (ssRNA) [AGUAAA 12-mer]	binds

The binders below were run against T1, mPSF (CPSF160-WDR33-CPSF30-Fip1) (assay: cryo-EM structure (3.1 A); RNA up to 40 uM, mPSF 1.4 uM; 20 mM Tris pH 8.0, 150 mM NaCl, 10 mM DTT, 100 nM BSA, 0.01% NP-40; 45 min on ice, read at room temperature; triplicates). Conditions: protein: recombinant; copies: 1;1;1;1.

Binder	binding result
UGCAAUAAUCAA (ssRNA) [AAUAAU 12-mer]	binds

What follows are binders tested against T1, mPSF (CPSF160-WDR33-CPSF30-Fip1) (assay: competition fluorescence anisotropy; vs FAM-AAUAAA; 20 mM Tris pH 8.0, 150 mM NaCl, 10 mM DTT, 100 nM BSA, 0.01% NP-40; 45 min on ice, read at room temperature; triplicates). Conditions: protein: recombinant; copies: 1;1;1;1.

Binder	Kd [nM]
UGCAAUGAACAA (ssRNA) [AAUGAA 12-mer]	1180
UGCAAUACACAA (ssRNA) [AAUACA 12-mer]	2200
UGCAAUAGACAA (ssRNA) [AAUAGA 12-mer]	2000
UGCGAUAAACAA (ssRNA) [GAUAAA 12-mer]	580
UGCCAUAAACAA (ssRNA) [CAUAAA 12-mer]	780
UGCAACAAACAA (ssRNA) [AACAAA 12-mer]	13000
UGCAAGAAACAA (ssRNA) [AAGAAA 12-mer]	1870
UGCAUUAUACAA (ssRNA) [AUUAUA 12-mer]	2140
UGCAUUAAACAA (ssRNA) [AUUAAA 12-mer]	79
UGCACUAAACAA (ssRNA) [ACUAAA 12-mer]	2700
UGCAAUAUACAA (ssRNA) [AAUAUA 12-mer]	2500
UGCAAUAAGCAA (ssRNA) [AAUAAG 12-mer]	11500
UGCUAUAAACAA (ssRNA) [CUAUAAA-context UAUAAA 12-mer]	520
